Residue numbers refer to the chain shown, from its start.
T1: NHERF3_1, Q5T2W1
T1 sequence (Q5T2W1 4-100, limits assumed, looked up): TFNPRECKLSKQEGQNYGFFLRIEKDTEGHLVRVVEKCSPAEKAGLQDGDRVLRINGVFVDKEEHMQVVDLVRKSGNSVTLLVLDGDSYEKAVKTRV

T2: APBA1_1, Q02410
T2 sequence (Q02410 651-752, limits assumed, looked up): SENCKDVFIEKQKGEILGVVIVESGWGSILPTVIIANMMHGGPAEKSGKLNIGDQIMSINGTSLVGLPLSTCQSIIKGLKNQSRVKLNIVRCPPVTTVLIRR

T3: APBA2_2, Q99767
T3 sequence (Q99767 654-744, limits assumed, looked up): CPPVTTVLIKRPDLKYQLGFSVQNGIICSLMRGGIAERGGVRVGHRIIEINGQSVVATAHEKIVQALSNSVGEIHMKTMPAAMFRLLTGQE

T4: SNTB1, Q13884
T4 sequence (Q13884 107-205, limits assumed, looked up): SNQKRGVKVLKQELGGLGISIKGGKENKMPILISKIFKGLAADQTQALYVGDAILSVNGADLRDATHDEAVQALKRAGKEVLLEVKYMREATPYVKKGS

T5: RAPGEF6, Q8TEU7
T5 sequence (Q8TEU7 525-625, limits assumed, looked up): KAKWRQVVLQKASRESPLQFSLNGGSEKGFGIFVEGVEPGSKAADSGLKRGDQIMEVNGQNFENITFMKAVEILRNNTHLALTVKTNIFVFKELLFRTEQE

T6: FRMPD1, Q5SYB0
T6 sequence (Q5SYB0 52-145, limits assumed, looked up): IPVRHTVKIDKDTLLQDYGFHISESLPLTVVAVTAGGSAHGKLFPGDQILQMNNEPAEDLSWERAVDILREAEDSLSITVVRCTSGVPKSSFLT

T7: HTRA4, P83105
T7 sequence (P83105 378-476, limits assumed, looked up): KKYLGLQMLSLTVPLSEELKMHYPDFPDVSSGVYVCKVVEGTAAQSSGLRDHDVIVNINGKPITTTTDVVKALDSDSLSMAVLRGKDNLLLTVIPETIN

T8: NHERF3_3, Q5T2W1
T8 sequence (Q5T2W1 238-333, limits assumed, looked up): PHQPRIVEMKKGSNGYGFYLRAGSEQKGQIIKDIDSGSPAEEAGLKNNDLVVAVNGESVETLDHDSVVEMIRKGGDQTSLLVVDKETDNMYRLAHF

T9: GRIP1_4, Q9Y3R0
T9 sequence (Q9Y3R0 467-571, limits assumed, looked up): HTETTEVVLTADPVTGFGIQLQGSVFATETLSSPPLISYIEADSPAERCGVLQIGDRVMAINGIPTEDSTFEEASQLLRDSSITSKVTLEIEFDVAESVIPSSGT

T10: LIN7B, Q9HAP6
T10 sequence (Q9HAP6 88-185, limits assumed, looked up): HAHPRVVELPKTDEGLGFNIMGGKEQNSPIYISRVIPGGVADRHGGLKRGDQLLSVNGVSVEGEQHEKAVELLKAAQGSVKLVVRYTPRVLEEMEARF

T11: GRIP1_5, Q9Y3R0
T11 sequence (Q9Y3R0 568-668, limits assumed, looked up): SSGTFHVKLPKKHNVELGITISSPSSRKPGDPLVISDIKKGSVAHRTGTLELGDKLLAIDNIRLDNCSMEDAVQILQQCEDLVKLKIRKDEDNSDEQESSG

T12: APBA1_2, Q02410
T12 sequence (Q02410 742-832, limits assumed, looked up): T3 sequence (Q99767 654-744, limits assumed, looked up) with K10R, K15R, A59P, Q65H, A66I, S70A, F84Y, G89A


Key:
Experiment in all cases: holdup assay
Design in all cases: key: below the threshold = too weak to quantify, mostly under pKd 3.1 to 4
Conditions in all cases: plain residues with an end cap or a label only (N-terminal biotin on a linker: ado-ado)
NHERF3_1, Q5T2W1 = molecular target: T1, NHERF3_1, Q5T2W1
FRMPD3, Q5JV73 = molecular target: FRMPD3, Q5JV73
FRMPD3, Q5JV73, sequence (Q5JV73 12-100): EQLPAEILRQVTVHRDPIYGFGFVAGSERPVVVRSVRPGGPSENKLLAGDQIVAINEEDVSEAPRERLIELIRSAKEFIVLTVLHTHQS

APBA1_1, Q02410 = molecular target: T2, APBA1_1, Q02410
APBA2_2, Q99767 = molecular target: T3, APBA2_2, Q99767
SNTB1, Q13884 = molecular target: T4, SNTB1, Q13884
DLG1_1, Q12959 = molecular target: DLG1_1, Q12959
PARD3_3, Q8TEW0 = molecular target: PARD3_3, Q8TEW0
PARD3_3, Q8TEW0, sequence (Q8TEW0 582-685): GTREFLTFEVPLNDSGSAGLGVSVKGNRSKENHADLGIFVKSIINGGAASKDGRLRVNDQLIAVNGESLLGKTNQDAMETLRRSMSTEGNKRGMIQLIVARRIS

GRASP, Q7Z6J2 = molecular target: GRASP, Q7Z6J2
GRASP, Q7Z6J2, sequence (Q7Z6J2 96-193): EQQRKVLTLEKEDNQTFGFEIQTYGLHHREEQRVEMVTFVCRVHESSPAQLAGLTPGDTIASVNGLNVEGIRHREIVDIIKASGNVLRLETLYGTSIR

GOPC, Q9HD26 = molecular target: GOPC, Q9HD26
LDB3, O75112 = molecular target: LDB3, O75112
LDB3, O75112, sequence (O75112 1-94): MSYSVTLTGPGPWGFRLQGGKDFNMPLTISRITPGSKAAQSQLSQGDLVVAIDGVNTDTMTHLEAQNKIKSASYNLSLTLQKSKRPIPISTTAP

RAPGEF6, Q8TEU7 = molecular target: T5, RAPGEF6, Q8TEU7
MAGI2_2, Q86UL8 = molecular target: MAGI2_2, Q86UL8
MAGI2_2, Q86UL8, sequence (Q86UL8 410-522): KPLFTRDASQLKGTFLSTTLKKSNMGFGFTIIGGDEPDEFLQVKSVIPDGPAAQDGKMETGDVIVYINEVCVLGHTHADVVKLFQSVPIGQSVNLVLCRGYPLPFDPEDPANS

GORASP2, Q9H8Y8 = molecular target: GORASP2, Q9H8Y8
Inadl_6, Q8NI35 = molecular target: Inadl_6, Q8NI35
Inadl_6, Q8NI35, sequence (Q8NI35 1058-1167): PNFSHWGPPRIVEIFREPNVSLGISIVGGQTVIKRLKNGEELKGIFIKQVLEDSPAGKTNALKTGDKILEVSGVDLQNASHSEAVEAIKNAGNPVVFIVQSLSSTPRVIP

FRMPD1, Q5SYB0 = molecular target: T6, FRMPD1, Q5SYB0
HTRA4, P83105 = molecular target: T7, HTRA4, P83105
NHERF3_3, Q5T2W1 = molecular target: T8, NHERF3_3, Q5T2W1
GRIP1_4, Q9Y3R0 = molecular target: T9, GRIP1_4, Q9Y3R0
LIN7B, Q9HAP6 = molecular target: T10, LIN7B, Q9HAP6
LAP2, Q96RT1 = molecular target: LAP2, Q96RT1
LAP2, Q96RT1, sequence (Q96RT1 other isoform, or with tags, fused parts or gaps): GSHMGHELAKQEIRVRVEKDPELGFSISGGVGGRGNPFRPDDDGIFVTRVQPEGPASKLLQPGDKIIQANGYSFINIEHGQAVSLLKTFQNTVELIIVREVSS

GRIP1_5, Q9Y3R0 = molecular target: T11, GRIP1_5, Q9Y3R0
GRIP2_6, Q9C0E4 = molecular target: GRIP2_6, Q9C0E4
GRIP2_6, Q9C0E4, sequence (Q9C0E4 648-740): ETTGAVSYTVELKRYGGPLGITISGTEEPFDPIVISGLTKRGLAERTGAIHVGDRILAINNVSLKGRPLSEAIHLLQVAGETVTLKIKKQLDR

APBA1_2, Q02410 = molecular target: T12, APBA1_2, Q02410
MAST1, Q9Y2H9 = molecular target: MAST1, Q9Y2H9
MAST1, Q9Y2H9, sequence (Q9Y2H9 962-1065): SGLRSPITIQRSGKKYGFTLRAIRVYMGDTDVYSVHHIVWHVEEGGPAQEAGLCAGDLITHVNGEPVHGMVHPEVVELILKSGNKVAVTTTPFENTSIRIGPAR

DLG2_3, Q15700 = molecular target: DLG2_3, Q15700
DLG4_1, P78352 = molecular target: DLG4_1, P78352
DLG4_1, P78352, sequence (P78352 62-152): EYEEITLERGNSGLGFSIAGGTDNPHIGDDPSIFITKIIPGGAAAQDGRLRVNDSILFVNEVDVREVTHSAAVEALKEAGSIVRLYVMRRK

| Binder | pKd (NHERF3_1, Q5T2W1) | pKd (FRMPD3, Q5JV73) | pKd (APBA1_1, Q02410) | pKd (APBA2_2, Q99767) | pKd (SNTB1, Q13884) | pKd (DLG1_1, Q12959) | pKd (PARD3_3, Q8TEW0) | pKd (GRASP, Q7Z6J2) | pKd (GOPC, Q9HD26) | pKd (LDB3, O75112) | pKd (RAPGEF6, Q8TEU7) | pKd (MAGI2_2, Q86UL8) | pKd (GORASP2, Q9H8Y8) | pKd (Inadl_6, Q8NI35) | pKd (FRMPD1, Q5SYB0) | pKd (HTRA4, P83105) | pKd (NHERF3_3, Q5T2W1) | pKd (GRIP1_4, Q9Y3R0) | pKd (LIN7B, Q9HAP6) | pKd (LAP2, Q96RT1) | further results |
| --- | --- | --- | --- | --- | --- | --- | --- | --- | --- | --- | --- | --- | --- | --- | --- | --- | --- | --- | --- | --- | --- |
| REKKFFCTIL [GNG4, P50150] | 5.43 | below the threshold | below the threshold | 3.47 | 4.43 | 4.23 | 4.27 | 5.1 | 5.18 | below the threshold | below the threshold | 4.63 | 5.05 | 4.22 | below the threshold | 4.76 | 3.5 | 3.56 | 3.97 | 3.79 | pKd (GRIP1_5, Q9Y3R0): below the threshold; pKd (GRIP2_6, Q9C0E4): 4.57; pKd (APBA1_2, Q02410): 4.71; pKd (MAST1, Q9Y2H9): 5.2; pKd (DLG2_3, Q15700): 4.41; pKd (DLG4_1, P78352): 4.06 |
| ALPLPQSSTC [IGF1R, P08069] | below the threshold | below the threshold | below the threshold | below the threshold | below the threshold | below the threshold | below the threshold | 4.12 | 3.55 | below the threshold | below the threshold | below the threshold | below the threshold | below the threshold | below the threshold | below the threshold | below the threshold | below the threshold | 3.86 | below the threshold | pKd (GRIP1_5, Q9Y3R0): below the threshold; pKd (GRIP2_6, Q9C0E4): below the threshold; pKd (APBA1_2, Q02410): below the threshold; pKd (MAST1, Q9Y2H9): below the threshold; pKd (DLG2_3, Q15700): 3.76; pKd (DLG4_1, P78352): below the threshold |
| DHLGGGGESM [TNRC6A, Q8NDV7] | below the threshold | below the threshold | below the threshold | below the threshold | below the threshold | below the threshold | below the threshold | below the threshold | below the threshold | below the threshold | below the threshold | below the threshold | below the threshold | below the threshold | below the threshold | below the threshold | below the threshold | below the threshold | below the threshold | 3.74 | pKd (GRIP1_5, Q9Y3R0): below the threshold; pKd (GRIP2_6, Q9C0E4): below the threshold; pKd (APBA1_2, Q02410): below the threshold; pKd (MAST1, Q9Y2H9): 3.91; pKd (DLG2_3, Q15700): below the threshold; pKd (DLG4_1, P78352): below the threshold |
| TGPWKNETTV [ADGRA1, Q86SQ6] | below the threshold | below the threshold | below the threshold | below the threshold | 4.67 | 4.82 | below the threshold | below the threshold | 3.69 | below the threshold | below the threshold | 5.17 | 3.57 | below the threshold | below the threshold | 3.92 | below the threshold | below the threshold | 3.54 | 3.84 | pKd (GRIP1_5, Q9Y3R0): below the threshold; pKd (GRIP2_6, Q9C0E4): below the threshold; pKd (APBA1_2, Q02410): below the threshold; pKd (MAST1, Q9Y2H9): 4.71; pKd (DLG2_3, Q15700): 4.64; pKd (DLG4_1, P78352): 4.99 |

More lines, main results first:

| pKd (NHERF3_1, Q5T2W1) | pKd (FRMPD3, Q5JV73) | pKd (APBA1_1, Q02410) | pKd (APBA2_2, Q99767) | pKd (SNTB1, Q13884) | pKd (DLG1_1, Q12959) | pKd (PARD3_3, Q8TEW0) | pKd (GRASP, Q7Z6J2) | pKd (GOPC, Q9HD26) | pKd (LDB3, O75112) | pKd (RAPGEF6, Q8TEU7) | pKd (MAGI2_2, Q86UL8) | pKd (GORASP2, Q9H8Y8) | pKd (Inadl_6, Q8NI35) | pKd (FRMPD1, Q5SYB0) | pKd (HTRA4, P83105) | pKd (NHERF3_3, Q5T2W1) | pKd (GRIP1_4, Q9Y3R0) | pKd (LIN7B, Q9HAP6) | pKd (LAP2, Q96RT1) | Binder | further results |
| --- | --- | --- | --- | --- | --- | --- | --- | --- | --- | --- | --- | --- | --- | --- | --- | --- | --- | --- | --- | --- | --- |
| 5.12 | 3.55 | below the threshold | below the threshold | 3.96 | below the threshold | below the threshold | below the threshold | below the threshold | below the threshold | below the threshold | below the threshold | below the threshold | below the threshold | below the threshold | below the threshold | below the threshold | below the threshold | below the threshold | 3.58 | IPGKEFDTPL [PLCB1, Q9NQ66] | pKd (GRIP1_5, Q9Y3R0): below the threshold; pKd (GRIP2_6, Q9C0E4): below the threshold; pKd (APBA1_2, Q02410): below the threshold; pKd (MAST1, Q9Y2H9): 4.31; pKd (DLG2_3, Q15700): below the threshold; pKd (DLG4_1, P78352): 3.51 |
| 4.09 | below the threshold | below the threshold | below the threshold | below the threshold | 4.08 | below the threshold | 3.89 | below the threshold | below the threshold | below the threshold | 4.69 | 4.17 | below the threshold | below the threshold | below the threshold | below the threshold | below the threshold | 3.72 | below the threshold | RRLQGTSSMV [GOLT1A, Q6ZVE7] | pKd (GRIP1_5, Q9Y3R0): below the threshold; pKd (GRIP2_6, Q9C0E4): below the threshold; pKd (APBA1_2, Q02410): 3.71; pKd (MAST1, Q9Y2H9): 4.35; pKd (DLG2_3, Q15700): 4.06; pKd (DLG4_1, P78352): 4.04 |
